# Measured values reported in publication PMC2175144 (The Journal of Cell Biology, 2000).
# B1: L1 third FN-like repeat (FN3), GST fusion protein, wild type (domain or fragment, human, UniProt P32004 814-916, looked up)
# chain: AIPELEGIEILNSSAVLVKWRPVDLAQVKGHLRGYNVTYWREGSQRKHSKRHIHKDHVVVPANTTSVILSGLRPYSSYHLEVQAFNGRGSGPASEFTFSTPEG
# B2: L1 FN-like repeats 1-3 (FN1-3) fusion protein, as run on SDS-PAGE (domain or fragment, human, UniProt P32004 615-916, looked up)
# chain: VPRLVLSDLHLLTQSQVRVSWSPAEDHNAPIEKYDIEFEDKEMAPEKWYSLGKVPGNQTSTTLKLSPYVHYTFRVTAINKYGPGEPSPVSETVVTPEAAPEKNPVDVKGEGNETTNMVITWKPLRWMDWNAPQVQYRVQWRPQGTRGPWQEQIVSDPFLVVSNTSTFVPYEIKVQAVNSQGKGPEPQVTIGYSGEDYPQAIPELEGIEILNSSAVLVKWRPVDLAQVKGHLRGYNVTYWREGSQRKHSKRHIHKDHVVVPANTTSVILSGLRPYSSYHLEVQAFNGRGSGPASEFTFSTPEG
# Key:
# [1] = molecular target: L1 FN3 putative C-C′ loop peptide …^852, wild type (human); experiment: SDS-PAGE of peptides
# SEC = molecular target: the molecule itself; experiment: SEC
# [2] = molecular target: the molecule itself; experiment: SDS-PAGE without boiling, immunoblot
molecule,measurement,setting,value
"L1 FN3 putative C-C′ loop peptide …^852, wild type",stoichiometry N,[1],3
B1,stoichiometry N,SEC,≥ 3
B2,stoichiometry N,[2],3
